Laboratory results published in article PMC6851316, “The C-terminal dimerization domain of the respiratory mucin MUC5B functions in mucin stability and intracellular packaging before secretion” (The Journal of Biological Chemistry, 2019).

T1: MUC5B C-terminal construct consisting of D4-B-C-CK (CT5B) (human, UniProt Q9HC84 4955-5762)
T1 construct: MUC5B, human, UniProtKB Q9HC84, D4-B-C-CK domains, residues 4955-5762; Mainly a disulfide-linked dimer with a small proportion of monomer; The dimer was used for cryo-EM, SPR (amine-coupled to a CM5 chip) and the homotypic tests; also called C-terminal dimerization domain of MUC5B; dimeric CT5B
T1 sequence (looked up): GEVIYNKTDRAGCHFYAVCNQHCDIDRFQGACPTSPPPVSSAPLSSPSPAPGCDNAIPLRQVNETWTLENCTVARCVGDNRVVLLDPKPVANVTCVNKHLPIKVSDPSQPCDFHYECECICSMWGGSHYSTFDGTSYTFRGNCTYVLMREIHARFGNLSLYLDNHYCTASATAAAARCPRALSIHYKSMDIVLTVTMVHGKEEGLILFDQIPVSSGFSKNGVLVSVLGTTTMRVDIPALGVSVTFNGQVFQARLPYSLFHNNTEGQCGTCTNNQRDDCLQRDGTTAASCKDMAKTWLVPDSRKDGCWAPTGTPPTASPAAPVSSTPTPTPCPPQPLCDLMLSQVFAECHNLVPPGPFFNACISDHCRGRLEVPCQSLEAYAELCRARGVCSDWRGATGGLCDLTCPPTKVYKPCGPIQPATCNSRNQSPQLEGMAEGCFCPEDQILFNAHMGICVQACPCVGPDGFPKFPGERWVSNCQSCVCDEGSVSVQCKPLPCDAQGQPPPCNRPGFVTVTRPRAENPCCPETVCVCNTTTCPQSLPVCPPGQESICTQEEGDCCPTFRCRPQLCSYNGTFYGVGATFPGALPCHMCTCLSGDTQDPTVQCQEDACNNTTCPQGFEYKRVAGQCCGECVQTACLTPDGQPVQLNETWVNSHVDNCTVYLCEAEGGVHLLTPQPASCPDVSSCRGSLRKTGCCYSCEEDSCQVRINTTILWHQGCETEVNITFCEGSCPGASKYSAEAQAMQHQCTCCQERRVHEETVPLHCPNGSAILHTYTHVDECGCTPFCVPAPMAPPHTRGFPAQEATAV


Legend:
[1] = target: MUC5B C-terminal construct consisting of D4-B-C-CK (CT5B) (human) (UniProt Q9HC84); experiment: SEC-MALS; recombinant CT5B on Superose 6 10/300 GL, 0.2 M NaCl, pH 7.4; step: monomer to disulfide-linked dimer
[2] = target: MUC5B C-terminal construct consisting of D4-B-C-CK (CT5B) (human) (UniProt Q9HC84); experiment: SEC-MALS; CT5B incubated overnight at 4 °C in 5 mM CaCl2 or 5 mM EGTA, 150 mM NaCl, 25 mM HEPES pH 7.4 or 25 mM MES pH 6 or 5; Superose 6 10/300 GL at room temperature; tests the step dimer to higher multimers
[3] = target: MUC5B C-terminal construct consisting of D4-B-C-CK (CT5B) (human) (UniProt Q9HC84); experiment: AUC; sedimentation velocity; CT5B with 5 mM CaCl2 overnight at 4 °C, 150 mM NaCl, 25 mM HEPES pH 7.4 or 25 mM MES pH 6 or pH 5; tests the step dimer to higher multimers
[4] = target: T1, MUC5B C-terminal construct consisting …; experiment: SPR; single cycle kinetics, pH 6; CT5B immobilised on CM5 chip, NT5B 0, 5, 10, 15, 20 and 40 nM, HBS with 5 mM CaCl2 and 0.05% Tween 20; 1:1 Langmuir model; settings: both partners purified
[5] = target: T1, MUC5B C-terminal construct consisting …; experiment: SPR; single cycle kinetics, pH 7.4; CT5B immobilised on CM5 chip, NT5B 0, 5, 10, 15, 20 and 40 nM, HBS with 5 mM CaCl2 and 0.05% Tween 20; 1:1 Langmuir model; settings: both partners purified
[6] = target: T1, MUC5B C-terminal construct consisting …; experiment: MST; pH 6; 2.5 nM RED-NHS labelled NT5B, CT5B serially diluted 1:1 (starting concentration 6 μM); 25 mM HEPES, 150 mM NaCl, 0.05% Tween 20, with 5 mM CaCl2 or 5 mM EGTA; room temperature; KD model; settings: both partners purified
[7] = target: T1, MUC5B C-terminal construct consisting …; experiment: MST; pH 7.4; 2.5 nM RED-NHS labelled NT5B, CT5B serially diluted 1:1 (starting concentration 6 μM); 25 mM HEPES, 150 mM NaCl, 0.05% Tween 20, with 5 mM CaCl2 or 5 mM EGTA; room temperature; KD model; settings: both partners purified

stoichiometry N [1] | stoichiometry N [2] | stoichiometry N [3] | Kd [4] [nM] | Kd [5] [nM] | binding response, fold lower than at pH 6 [5] [fold] | Kd [6] [nM] | Kd [7] [nM] | Molecule
2 | 2 | 2 | – | – | – | – | – | MUC5B C-terminal construct consisting of D4-B-C-CK (CT5B) (from UniProt Q9HC84 4955-5762) (domain or fragment)
– | – | – | ~1 | ~3 | 5 | 3 ± 1.4 | 7.4 ± 1.5 | MUC5B N-terminal construct consisting of D1-D2-D′-D3 (NT5B) (domain or fragment, RED-NHS (amine reactive) fluorescent dye, in the MST experiments only) QGPVEPSWENAGHTMDGGAPTSSPTRRVSFVPPVTVFPSLSPLNPAHNGRVCSTWGDFHYKTFDGDVFRFPGLCNYVFSEHCRAAYEDFNVQLRRGLVGSRPVVTRVVIKAQGLVLEASNGSVLINGQREELPYSRTGLLVEQSGDYIKVSIRLVLTFLWNGEDSALLELDPKYANQTCGLCGDFNGLPAFNEFYAHNARLTPLQFGNLQKLDGPTEQCPDPLPLPAGNCTDEEGICHRTLLGPAFAECHALVDSTAYLAACAQDLCRCPTCPCATFVEYSRQCAHAGGQPRNWRCPELCPRTCPLNMQHQECGSPCTDTCSNPQRAQLCEDHCVDGCFCPPGTVLDDITHSGCLPLGQCPCTHGGRTYSPGTSFNTTCSSCTCSGGLWQCQDLPCPGTCSVQGGAHISTYDEKLYDLHGDCSYVLSKKCADSSFTVLAELRKCGLTDNENCLKAVTLSLDGGDTAIRVQADGGVFLNSIYTQLPLSAANITLFTPSSFFIVVQTGLGLQLLVQLVPLMQVFVRLDPAHQGQMCGLCGNFNQNQADDFTALSGVVEATGAAFANTWKAQAACANARNSFEDPCSLSVENENYARHWCSRLTDPNSAFSRCHSIINPKPFHSNCMFDTCNCERSEDCLCAALSSYVHACAAKGVQLSDWRDGVCTKYMQNCPKSQRYAYVVDACQPTCRGLSEADVTCSVSFVPVDGCTCPAGTFLNDAGACVPAQECPCYAHGTVLAPGEVVHDEGAVCSCTGGKLSCLGASLQKSTGCAAPMVYLDCSNSSAGTPGAECLRSCHTLDVGCFSTHCVSGCVCPPGLVSDGSGGCIAEEDCPCVHNEATYKPGETIRVDCNTCTCRNRRWECSHRLCLGTCVAYGDGHFITFDGDRYSFEGSCEYILAQDYCGDNTTHGTFRIVTENIPCGTTGTTCSKAIKLFVESYELILQEGTFKAVARGPGGDPPYKIRYMGIFLVIETHGMAVSWDRKTSVFIRLHQDYKGRVCGLCGNFDDNAINDFATRSRSVVGDALEFGNSWKLSPSCPDALAPKDPCTANPFRKSWAQKQCSILHGPTFAACRSQVDSTKYYEACVNDACACDSGGDCECFCTAVAAYAQACHDAGLCVSWRTPDTCPLFCDFYNPHGGCEWHYQPCGAPCLKTCRNPSGHCLVDLPGLEGCYPKCPPSQPFFNEDQMKCVAQCGCYDKDGNYYDVGARVPTAENCQSCNCTPSGIQCA
